Reference: patent US20180271973A1

Target: CH505 transmitted/founder (T/F) Env gp120 (HIV-1)
Experiment: surface plasmon resonance

CH103 UCA (unmutated common ancestor of the CH103 CD4 binding site bnAb lineage) (antibody)
Kd: 200 nM
